# Assay results taken from patent publication US9969998B2, “Compositions of adenosine deaminase-2 (ADA2), variants thereof and methods of using same” (Halozyme, Inc., priority 2014, dated 2018).
# Entries after “also recorded” stand apart in the source; their conditions may differ.
# B1: ADA2: wild-type human adenosine deaminase 2, mature form SEQ ID NO:5, homodimer (protein, listed as Homo sapiens)
# chain: IDETRAHLLLKEKMMRLGGRLVLNTKEELANERLMTLKIAEMKEAMRTLIFPPSMHFFQAKHLIERSQVFNILRMMPKGAALHLHDIGIVTMDWLVRNVTYRPHCHICFTPRGIMQFRFAHPTPRPSEKCSKWILLEDYRKRVQNVTEFDDSLLRNFTLVTQHPEVIYTNQNVVWSKFETIFFTISGLIHYAPVFRDYVFRSMQEFYEDNVLYMEIRARLLPVYELSGEHHDEEWSVKTYQEVAQKFVETHPEFIGIKIIYSDHRSKDVAVIAESIRMAMGLRIKFPTVVAGFDLVGHEDTGHSLHDYKEALMIPAKDGVKLPYFFHAGETDWQGTSIDRNILDALMLNTTRIGHGFALSKHPAVRTYSWKKDIPIEVCPISNQVLKLVSDLRNHPVATLMATGHPMVISSDDPAMFGAKGLSYDFYEVFMGIGGMKADLRTLKQLAMNSIKYSTLLESEKNTFMEIWKKRWDKFIADVATK
# modifications: ADA2 mature protein
# What was measured:
# [1] = Thermal stability, melting temperature (Tm) by differential scanning fluorimetry; format: physicochemical; settings: compared to ADA1
# From the text: Proteins differ in their degrees of thermal stability (or thermostability). In particular, proteins with biological activities, such as enzymes, can have different optimal temperatures. Thermostability, the quality of a protein to resist irreversible change in its chemical or physical structure at a relatively high temperature, can be indicative of overall stability of a protein. Increased temperature usually induces protein unfolding, and disruption of secondary, tertiary and quaternary structure of proteins, leading to destabilization of protein. Thermostability of a protein, such as any ADA2 polypeptide provided herein, can be determined by measuring the changes in enzymatic activity and/or other physical properties, before and after incubation in relatively high or low temperatures.
# The stability of a protein can be determined by measuring the activity of the protein as a function of time. The melting temperature (Tm) of the protein can be used as a marker of solution stability and in vivo stability for proteins. The unfolding temperature of a particular protein refers to that temperature at which the protein loses its secondary structure and typically, its activity and can be determined using methods known to those of skill in the art and described herein, such as differential scanning calorimetry […]. […] In other examples, the thermal stability can be measured biochemically. […]
# [2] = test system: mixture of NK and T (NK/T) cells; test: T-cell or NK/T cell proliferation assay in the presence of adenosine; format: cell-based
# From the text: Reversal of adenosine-mediated immunosuppression by any ADA2 provided herein, including wildtype and variants, conjugates and other modified forms thereof, and combination therapy using any ADA2 provided herein and other agents, can be examined in vitro, for example, by performing proliferation assays. Such assays include, but are not limited to T-cell proliferation assays or a mixture of NK and T (NK/T) cell proliferation assays, in the presence of adenosine and/or any ADA2 provided herein and/or any other combination therapy agents. For example, the immunosuppressive effect of adenosine on various immune cells, such as lymphocytes, natural killer (NK) cells, polymorphonuclear granulocytes, and phagocytic cells such as tissue macrophages, can be assessed by proliferation assays using the immune cells or mixtures thereof, such as the mixture of NK and T (NK/T) cells prepared from peripheral blood mononuclear cells (PBMC). The effect of any ADA2 provided herein and any other combination therapy agents provided herein, can be assessed by comparing the results of such proliferation assays in the presence of adenosine, with or without the addition of any ADA2 provided herein and/or any other combination therapy agents provided herein, including immune checkpoint inhibitors. Combination therapy agents are described in Section H.4 below. […]
molecule,measurement,setting,value
B1,thermal stability,[1],higher thermal stability
same,reversal of adenosine-mediated immunosuppression,[2],reverse the adenosine-dependent immunosuppression; also recorded: reversed
